Measured values: patent US20240336909

B1: MMP-7 (protein)
chain: YSLFPNSPKWTSKVVTYRIVSYTRDLPHITVDRLVSKALNMWGKEIPLHFRKVVWGTADIMIGFARGAHGDSYPFDGPGNTLAHAFAPGTGLGGDAHFDEDERWTDGSSLGINFLYAATHELGHSLGMGHSSDPNAVMYPTYGNGDPQNFKLSQDDIKGIQKLYGKRSNSRKK
B2: MMP-1 (protein)
chain: FVLTEGNPRWEQTHLTYRIENYTPDLPRADVDHAIEKAFQLWSNVTPLTFTKVSEGQADIMISFVRGDHRDNSPFDGPGGNLAHAFQPGPGIGGDAHFDEDERWTNNFREYNLHRVAAHELGHSLGLSHSTDIGALMYPSYTFSGDVQLAQDDIDGIQAIYGRSQNPVQPIGPQTPKACDSKLTFDAITTIRGEVMFFKDRFYMRTNPFYPEVELNFISVFWPQLPNGLEAAYEFADRDEVRFFKGNKYWAVQGQNVLHGYPKDIYSSFGFPRTVKHIDAALSEENTGKTYFFVANKYWRYDEYKRSMDPGYPKMIAHDFPGIGHKVDAVFMKDGFFYFFHGTRQYKFDPKTKRILTLQKANSWFNCRKN
B3: MMP-12 (protein)
chain: GPVWRKHYITYRINNYTPDMNREDVDYAIRKAFQVWSNVTPLKFSKINTGMADILVVFARGAHGDFHAFDGKGGILAHAFGPGSGIGGDAHFDEDEFWTTHSGGTNLFLTAVHEIGHSLGLGHSSDPKAVMFPTYKYVDINTFRLSADDIRGIQSLYGDPKENQRLPNPDNSEPALCDPNLSFDAVTTVGNKIFFFKDRFFWLKVSERPKTSVNLISSLWPTLPSGIEAAYEIEARNQVFLFKDDKYWLISNLRPEPNYPKSIHSFGFPNFVKKIDAAVFNPRFYRTYFFVDNQYWRYDERRQMMDPGYPKLITKNFQGIGPKIDAVFYSKNKYYYFFQGSNQFEYDFLLQRITKTLKSNSWFGC

Target: AxCT mask27 EGFR EH104 L001 version 1

Protein	Percent cleavage
B1	71%
B2	40%
B3	68%

Target: AxCT mask27 EGFR EH104 L040 version 1

Protein	Percent cleavage
B1	0%
B2	6%
B3	13%

Target: AxCT mask27 EGFR EH104 L041 version 1

Protein	Percent cleavage
B1	0%
B2	0%
B3	0%

Target: AxCT mask27 EGFR EH104 L043 version 1

Protein	Percent cleavage
B1	0%
B2	0%
B3	0%

Target: AxCT mask27 EGFR EH104 L054 version 1

Protein	Percent cleavage
B1	24%
B2	0%
B3	30%

Target: AxCT mask27 EGFR EH104 L055 version 1

Protein	Percent cleavage
B1	67%
B2	10%
B3	72%

Target: AxCT mask27 EGFR EH104 L056 version 1

Protein	Percent cleavage
B1	6%
B2	6%
B3	12%

Target: AxCT mask27 EGFR EH104 L057 version 1

Protein	Percent cleavage
B1	0%
B2	7%
B3	18%

Target: AxCT mask27 EGFR EH104 L058 version 1

Protein	Percent cleavage
B1	0%
B2	0%
B3	9%

Target: AxCT mask27 EGFR EH104 L059 version 1

Protein	Percent cleavage
B1	0%
B2	0%
B3	62%

Target: AxCT mask27 EGFR EH104 L060 version 1

Protein	Percent cleavage
B1	9%
B2	0%
B3	18%

Target: AxCT mask27 EGFR EH104 L061 version 1

Protein	Percent cleavage
B1	26%
B2	0%
B3	49%

Target: AxCT mask27 EGFR EH104 L062 version 1

Protein	Percent cleavage
B1	25%
B2	0%
B3	51%

Target: AxCT mask27 EGFR EH104 L063 version 1

Protein	Percent cleavage
B1	37%
B2	0%
B3	31%

Target: AxCT mask27 EGFR EH104 L064 version 1

Protein	Percent cleavage
B1	28%
B2	0%
B3	34%

Target: AxCT mask27 EGFR EH104 L065 version 1

Protein	Percent cleavage
B1	60%
B2	10%
B3	68%

Target: AxCT mask27 EGFR EH104 L066 version 1

Protein	Percent cleavage
B1	0%
B2	6%
B3	16%

Target: AxCT mask27 EGFR EH104 L067 version 1

Protein	Percent cleavage
B1	0%
B2	0%
B3	26%

Target: AxCT mask27 EGFR EH104 L068 version 1

Protein	Percent cleavage
B1	0%
B2	0%
B3	9%

Target: AxCT mask27 EGFR EH104 L069 version 1

Protein	Percent cleavage
B1	0%
B2	0%
B3	63%

Target: AxCT mask27 EGFR EH104 L070 version 1

Protein	Percent cleavage
B1	9%
B2	0%
B3	19%

Target: AxCT mask27 EGFR EH104 L071 version 1

Protein	Percent cleavage
B1	30%
B2	0%
B3	51%

Target: AxCT mask27 EGFR EH104 L072 version 1

Protein	Percent cleavage
B1	0%
B2	0%
B3	48%

Target: AxCT mask27 EGFR EH104 L073 version 1

Protein	Percent cleavage
B1	27%
B2	0%
B3	31%

Target: AxCT mask27 EpCAM H90 L001 version 1

Protein	Percent cleavage
B1	92%
B2	48%
B3	91%

Target: AxCT mask27 EpCAM H90.2 L040 version 1

Protein	Percent cleavage
B1	0%
B2	0%
B3	0%

Target: AxCT mask27 EpCAM H90.2 L041 version 1

Protein	Percent cleavage
B1	0%
B2	0%
B3	0%

Target: AxCT mask27 EpCAM H90.2 L043 version 1

Protein	Percent cleavage
B1	0%
B2	0%
B3	0%

Target: AxCT mask27 EpCAM H90.2 L059 version 1

Protein	Percent cleavage
B1	0%
B2	0%
B3	71%

Target: AxCT mask27 EpCAM H90.2 L060 version 1

Protein	Percent cleavage
B1	9%
B2	0%
B3	16%

Target: AxCT mask27 EpCAM H90.2 L061 version 1

Protein	Percent cleavage
B1	35%
B2	0%
B3	64%

Target: AxCT mask27 EpCAM H90.2 L063 version 1

Protein	Percent cleavage
B1	48%
B2	0%
B3	33%

Target: AxCT mask27 EpCAM H90.2 L064 version 1

Protein	Percent cleavage
B1	32%
B2	0%
B3	36%

Target: AxCT mask27 EpCAM H90.2 L073 version 1

Protein	Percent cleavage
B1	43%
B2	0%
B3	36%

Target: AxCT mask27 EpCAM H90.2 L075 version 1

Protein	Percent cleavage
B1	0%
B2	0%
B3	0%

Target: AxCT mask27 EpCAM H90.2 L076 version 1

Protein	Percent cleavage
B1	0%
B2	0%
B3	0%

Target: AxCT mask27 EpCAM H90.2 NCLV

Protein	Percent cleavage
B1	0%
B2	0%
B3	0%
